# Reference: the DeepSol protein solubility set
# Experiment: soluble on expression in E. coli; label from the status in PepcDB or PDB records
row,Sequence,soluble on expression in E. coli
1,MEVLKLQLRQWQAEKLGEAINALKHGKTLLLNAKPGLGKTVFVEVLGMQLKKKVLIFTRTHSQLDSIYKNAKLLGLKTGFLIGKSASCIYAQGDEEPDEINCSKCRLKDKIKTIEDKEPSKLIEEFKDAVDYCPYYSLRANLKDKDVIAMTYPYLFQKPIRNSVFCNKDDCLKLEDYLIVIDEAHNLLEADKWFTRKISRKMLERALKEIEIVERLNRIDAKKVKDYINLLIDYMSKLIKDGRCHELSLMPLPDRETNGELIVVTRAYLNIDEGPVKKSSLKSLLKFVEMKGDLYNCNGSLVKVPSDVNQLIEDALNVKTFKVLMSGTLPESLTLTNSYKIVVNESYGRGEYYYCPNVTSELRKRNSNIPIYSILLKRIYENSSKSVLVFFPSYEMLESVRIHLSGIPVIEENKKTRHEEVLELMKTGKYLVMLVMRAKESEGVEFREKENLFESLVLAGLPYPNVSDDMVRKRIERLSKLTGKDEDSIIHDLTAIVIKQTIGRAFRDPNDYVKIYLCDSRYREYFADLGISEKEIKLFA,soluble
2,MEKKTIVLGVIGSDCHAVGNKILDHSFTNAGFNVVNIGVLSSQEDFINAAIETKADLICVSSLYGQGEIDCKGLREKCDEAGLKGIKLFVGGNIVVGKQNWPDVEQRFKAMGFDRVYPPGTSPETTIADMKEVLGVE,soluble
3,MFREAELRNGLRVIAEVVPGARSVALGYFVKTGARDETKEESGVSHFLEHMVFKGPEDMDALAVNRAFDRMGAQYNAFTSEEATVYYGAVLPEFAYDLLGLFAKLLRPALREEDFQTEKLVILEEIARYQDRPGFMAYEWARARFFQGHPLGNSVLGTRESITALTREGMAAYHRRRYLPKNMVLAATGRVDFDRLLAEAERLTEAWPEGEAERAYPPLTPAFGVEERPYEKARALYLVALFPGVAYQEEARFPGQVLAHLLGEEGSGRLHFALVDKGLAEVASFGLEEADRAGTFHAYVQADPARKGEVLAVLQEELDRLGREGVGEEEVERAKTPLATGLVFAGETPMQRLFHLGMEYLYTGRYLSLEEVKARVQRVTSREVNALLERGFLEKGLYYLVLPHGA,soluble
4,MHVAMALADIDRVGGVVIIDPVVHPLTPKHPPNQAERGQIRADRCSTAVFAWLFHEWNATGRSALMRGLTCFAGNTNAQPKHPRRAFRDRLGSTGPRPPRLTVASTPSRQPHHRRILIVTKAKSGSVAPELDTPTDLPPQSVEKISTALNGLLADSFALYLKTKNFHWHISGRHFRDYHLLLDEQSAQILATTDDLAERVRKVGGTTLRSIGHISKLQSIQDNNDDYVPPREMLRELMNDNKKVAAAMRKAHEIVDECKDAASAGLLENFIDETEKRTWFLFEATRQEGANEA,not soluble
5,NGFDVREGRKLLVGGGSGIVSLYPIADQETDALISAKTRDELIFKDRFPESRRFIATDDGSDGFHGFAHELLQRINIDSYEAIYVCGPEQMMYKVLQVLKGRKVFVQFS,not soluble
6,MGSDKIHHHHHHMNKNNQYVLSLACQDAPGIVSEVSTFLFNNGANIVEAEQFNDEDSSKFFMRVSVEIPVAGVNDFNSAFGKVVEKYNAEWWFRPRTDRKKVVIMVSKFDHCLGDLLYRHRLGELDMEVVGIISNHPREALSVSLVGDIPFHYLPVTPATKAAQESQIKNIVTQSQADLIVLARYMQILSDDLSAFLSGRCINIHHSFLPGFKGAKPYHQAHTRGVKLIGATAHFVTADLDEGPIIAQDVEHVSHRDSAEDLVRKGRDIERRVLSRAVLLFLEDRLIVNGERTVVFAD,not soluble
7,TSKATIRDLNDPSQVKTLQEKASKGAGTVVAVIDAGFDKNHEAWRLTDKTKARYQSKEDLEKAKKEHGITYGEWVNDKVAYYHDYSKDGKTAVDQEHGTHVSGILSGNAPSETKEPYRLEGAMPEAQLLLMRVEIVNGLADYARNYAQAIRDAVNLGAKVINMSFGNAALAYANLPDETKKAFDYAKSKGVSIVTSAGNDSSFGGKTRLPLADHPDYGVVGTPAAADSTLTVASYSPDKQLTETATVKTDDHQAKEMPVLSTNRFEPNKAYDYAYANRGMKEDDFKDVKGKIALIERGDIDFKDKIANAKKAGAVGVLIYDNQDKGFPIELPNVDQMPAAFISRKDGLLLKDNSKKTITFNATPKVLPTASDTKLSRFSSWGLTADGNIKPDIAAPGQDILSSVANNKYAKLSGTSMSAPLVAGIMGLLQKQYETQYPDMTPSERLDLAKKVLMSSATALYDEDEKAYFSPRQQGAGAVDAKKASAATMYVTDKDNTSSKVHLNNVSDKFEVTVTVHNKSDKPQELYYQATVQTDKVDGKHFALAPKALYETSWQKITIPANSSKQVTVPIDASRFSKDLLAQMKNGYFLEGFVRFKQDPKKEELMSIPYIGFRGDFGNLSALEKPIYDSKDGSSYYHEANSDAKDQLDGDGLQFYALKNNFTALTTESNPWTIIKAVKEGVENIEDIESSEITETIFAGTFAKQDDDSHYYIHRHANGKPYAAISPNGDGNRDYVQFQGTFLRNAKNLVAEVLDKEGNVVWTSEVTEQVVKNYNNDLASTLGSTRFEKTRWDGKDKDGKVVVNGTYTYRVRYTPISSGAKEQHTDFDVIVDNTTPEVATSATFSTEDRRLTLASKPKTSQPIYRERIAYTYMDEDLPTTEYISPNEDGTFTLPEEAETMEGGTVPLKMSDFTYVVEDMAGNITYTPVTKLLEGHS,soluble
8,MNTYAQESKLRLKTKIGADGRCVIEDNFFTPPFKLMAPFYPKDDLAEIMLLAVSPGMMRGDAQDVQLNIGPNCKLRITSQSFEKIHNTEDGFASRDMHIVVGENAFLDFAPFPLIPFENAHFKGNTTISLRSSSQLLYSEIIVAGRVARNELFKFNRLHTKISILQDEKPIYYDNTILDPKTTDLNNMCMFDGYTHYLNLVLVNCPIELSGVRECIEESEGVDGAVSETASSHLCVKALAKGSEPLLHLREKIARLVTQTTTQKVLEHHHHHH,soluble
9,MRIGIVGAGLGGLLAGALLSKNHEVVVFEKLPFLGGRFTNLKYEGFQLTTGALHMIPHGNDGYLAQALRKAGANVKIINSKPDGTFLINGKEYLYKELFSLLGFKEKAKAFKLATKLKLGKVDKNISFGEFLEEIDLALKVGNAFTGWALSLTAYETPMSEIIEIAKNYHKFGGPGIPIGGCKAVTDELSRIIKKNNGKIIKEYEVKRIEIDEKAYIDDYEFDVVISNISPIETQKICNIKFLKSKPKPSKGIKISIATKEGIIKHGGVLFTPECERINGLNQVTNVDKSLAPEGWHLVMTHQTQLTNNVKKEIDLGLEDIENLFKGKDYKILHIQSYRDDWPVNHASNGTDIDNIVNDRFYLVGDGAKGRGGIEVEGIAMGVLKVVNYINSLLEHHHHHH,soluble
10,MGSDKIHHHHHHMAEKPISLSQAPAGYSDWLSELKTKIHSAQQRATLAVNQELVLLYWQIGQEILTRQAELGWGAKVVERLAHDLRTAFPDMKGFSPRNLKYMRAFAEAWPDLEFVQALLAQLPWYHQLALLDKLDNTDSRTWYAQKALENHWSRNVLVMHIESGLHQRQGAAITNFAATLPKPQSDLARESIKDPYRFDFLGLTEAAQEREIEHALVQHVTQFLLELGAGFAFVGRQVLMQVGDEEFFIDLLFYHLKLRCYVVIELKTGKFKPEHLGQLSFYMTAIDKQVKTEPDNATIGLLLCKSKDKVVAEYALGDKSQAMGIAEYKLQQALPEVLESNLPSIEQIERELQGEA,not soluble
11,MGSDKIHHHHHHMNKNMIKGMIVFAAIAEKGSMSAAAQQLNLSSSAVSQQVTKLEMDMGISLFHRNTRNLTLTEAGSLFYENCRKVIAIVESTEQKLNNLKGIPSGELKIAAPIGFGGGLLSEPFNYLLAAHPQISLNLLLQDGPIDIVNEGIDLAICIGPLSDSNLIARHLADWRMLLCASPDYLPMHKIFKHPAELAAFNRINHPCANSETLTHVRNKECFELTSQRITVNNMQALIQLTLDGLGFAALPEPEVHKYLESGQLVTLLPEWSLNTYSVYSVTSARDKQPAKVKEALNTLSQYFSQANFNPAYHFKQCVQKDGTKGSVTNILPIKPKQASHHADVDHAS,not soluble
